From publication PMC7949130

Tests used:
[1] = target: nonsulfated human cationic trypsin purified from E. coli (human); assay: equilibrium binding assay; equilibrium dissociation constant of ecotin on human trypsins, 15 h of incubation; further conditions not told for ecotin
[2] = target: native sulfated human cationic trypsin purified from pancreatic juice (human); assay: as above

## ecotin (from UniProt P23827 21-162) (natural protein)
[1]
  Kd: 8.1 pM
[2]
  Kd: 5.6 pM
